Assay results reported in the DeepSol protein solubility set.

Experiment: soluble on expression in E. coli; label from the status in PepcDB or PDB records

Question: For “MTVVIGVLALQGAFIEHVRHVEKCIVENRDFYEKKLSVMTVKDKNQLAQCDALIIPGGESTAMSLIAERTGFYDDLYAFVNPSKVTWGTCAGLIYISQQLSNEAKLVKTLNLLKVKVKRNAFGRQAQSSTRICDFSNFIPHCNDFPATFIRAPVIEEVLDPEHVQVLYKLDGKDNGGQELIVAAKQKNNILATSFHPELAENDIRFHDWFIREFVLKNYSK”, which “soluble on expression in E. coli” value is on record?
Answer: not soluble

Question: With “MAGLIPQSFIDDLLNRTDIVEVVSSRIQLKKTGKNYSACCPFHKEKTPSFTVSPDKQFYYCFGCGAGGNALGFVMDHDQLEFPQAVEELAKRAGMDVPREERGGRGHTPRQPTDSPLYPLLSAAAEFYKQALKSHPARKAAVNYLKGRGLTGEIARDFGLGFAPPGWDNLLKHLGGDNLQLKAMLDAGLLVENSDTGKRYDRFRDRVMFPIRDSRGRIIAFGGRVLGDDKPKYLNSPETPVFHKGQELYGLYEARQKNRDLDEIMVVEGYMDVIALAQQGIRNAVATLGTATSEEHIKRLFRLVPSILFCFDGDQAGRKAAWRALESVLPNLQDGKRVRFLFLPEGEDPDSLVRAEGEDAFRARITQQAQPLAEYFFQQLMLEADPATLEGKAHLATLAAPLLEKIPGNNLRLLMRQRLSEITGLSGENIGQLAHHSPPPSSMDHGASGVLDGDDYFAASAYYENEPSHAPFDAAPGYVEAQPRKSWNKDKKPWDGKKWDGKKKWDKGGRGDFKAPQRTPVSVESTTLNALRTLLHHPQLALKVDDAGTLAREQDTYAQLLVSLLEALQKNPRQSSMQLIARWHGTPQGRLLQALGEKEWLIVQENLEKQFFDTITKLSESQRFGEREERLRSVMQKSYSELTDEEKALLREHYSVAASSP” as the sequence, how does the “soluble on expression in E. coli” value read?
Answer: not soluble

Question: With “ATAAQAERTLPKKYGGRFTVTLIPGDGVGKEITDSVRTIFEAENIPIDWETINIKQTDHKEGVYEAVESLKRNKIGLKGLWHTPADQTGHGSLNVALRKQLDIYANVALFKSLKGVKTRIPDIDLIVIRENTEGEFSGLEHESVPGVVESLKVMTRPKTERIARFAFDFAKKYNRKSVTAVHKANIMKLGDGLFRNIITEIGQKEYPDIDVSSIIVDNASMQAVAKPHQFDVLVTPSMYGTILGNIGAALIGGPGLVAGANFGRDYAVFEPGSRHVGLDIKGQNVANPTAMILSSTLMLNHLGLNEYATRISKAVHETIAEGKHTTRDIGGSSSTTDFTNEIINKLSTMHHHHH” as the sequence, how does the “soluble on expression in E. coli” value read?
Answer: soluble

Question: Which “soluble on expression in E. coli” value does the source give for “MGINERLRHVIEAQKMTIKGFAETVDIPLRSVHNYLSGEREPSADALTKISNKLNINLNWLLLDQGEMYLNQSSDLTLNADEMNLLTQYRQTHDSGKRILQATSKIILDELK” here?
Answer: not soluble

Question: With “MKKVSIIIPFKGQTEAELMLPLSSIYNQIGVDLSQLDIHLVNDGGKTIDLSKFDVLADRLEIHYHEIPNGGPGVARQYGIDNSISEYIMFIDADDVLYYVGALWPFYNASNQGHQMIRASYWEQIAGNPYTYTVHGNGDRKAAYGKWYKRSYIEMLGLRFMPDLPIYEDTYFVGLACELATDTCFLEEKVYMWLANPNSITRTVENKFNYQAHIYARENRYWFEMIRKWKPECLVTDFENYLTNMYLKSQKYPPVDEKAWWEEQHKLITSVSDIFSGWTQELQKQVELEHHHHHH” as the sequence, how does the “soluble on expression in E. coli” value read?
Answer: not soluble

Question: Which “soluble on expression in E. coli” value does the source give for “MSETVYTAKDYKSGQPRWCPGCGDHAFLNSLHKAMAELGVAPHNIAVISGIGCSSRLPYYVNTYGFHTIHGRAAAVATGAKVANPDLTIWQISGDGDGLAIGGNHFIHAVRRNIDLNMILLNNRIYGLTKGQYSPTSDRGFVSKSSPYGTVEDPFHPAELCFGARGRFFARCVAVDGPASVEVLKAAANHKGASVVEVLQNCVIFNDGTHESVATKEGRSKNAIYLEHGKPMLFGENKEFGLMQEGFGLKVVKLGENGVTEKDILIHNAHSMDNTLQLKLALMEGPDFPIALGVIRDVEAPTYNDAVAEQIDEVKAKKKYHNFQELLMTNETWEVK” here?
Answer: not soluble

Question: Which “soluble on expression in E. coli” value does the source give for “MTVIALRHLGPAERKSFARHLAGGDFPGKGAWDDGTVVLDRVLDGLGDEAGRALIEGALAKASRMVVVTLGGEAAARWTPEVLGPAFVYLLGEAIDADSPAVALAFLDGPGRPRLFAPRFSVMVPVYNHRDLIGACLDSIAAQSWPLWEAVVVDDGSTDGVATLLTERAAADPRLRWSSQANGGTGAALNACLAMAREEWIAWLSSDDLFAPDKLAAHAALLRRDGLAPAFHHTAVIRRNDAGEEQVVAPLGPLMTGSAGLRRLAMTSVNLIQGISIVVHRDLFAQTAGFDPRNRFTQDYAMWVRLMERTDPVYLPLVTAVTRVGAAQTTARHYQRTRAEAIAAILGALRDFSAGAPDDREARLEAVAALVMLASSPHGFLARYGLQGWYVARAMGLAAEAKVLGATFADVSARLGPWSVGHIHDPQAMGHLAMIESVFREDKAAAPIDPFRILTRMLISPTIPADLAEAITGFLRGDLPQPLEHHHHHH” here?
Answer: not soluble

Question: With “MVIMVNTEYIPGKRIVKVFGTIWGITVRSRGLGGNLVAGLRSLAGGEIKEYTKMLSDARNTAMERLQSAAEQIGANAVINVRFDSSDIGQVMTEIVAYGTAVLVE” as the sequence, how does the “soluble on expression in E. coli” value read?
Answer: soluble

Question: For “MGSDKIHHHHHHVRVPLLDRDHPRYGNDRFWPGMRAELAKLWRERGHAPILNPPRPRARTHKIQESRSMHLEVLRVPPTTADPEMADRPPLVFVHGAFAGAWCWRETFMPWFAARGWDTHALSLRGHGASDGAERLDSTRLADYADDLRRVIDELDRPPVLIGHSMGGMVVQKVLEDTQAAAAVLLASVPPTGLFSGSVLMALRHPLLCMALWRIQTFGPEEASLRMVEAGLFSTPLDAREAERYTALLQNESSRVVLDMTWFDVPRRRCPQELPLLVLGAEDDAFVPPIEVLATAAFHGTTAQLLPDIGHAMMLDRGWEKTASVMEEWLRCSAF”, which “soluble on expression in E. coli” value is on record?
Answer: not soluble

Question: Which “soluble on expression in E. coli” value does the source give for “MRFSREALLELEASRLAPYAQKARDTRGRAHPEPESLYRTPYQKDRDRILHTTAFRRLEYKTQVLPGWAGDYYRTRLTHTLEVAQVSRSIARALGLNEDLTEAIALSHDLGHPPFGHTGEHVLNALMQDHGGFEHNAQALRILTHLEVRYPGFRGLNLTYEVLEGIATHEAAYSPGFKPLYEGQGTLEAQVVDLSDAIAYAAHDLDDGLRAGLLHPEELKEVELLQALALEEGLDLLRLPELDRRVLVRQLLGYFITAAIEATHRRVEEAGVQSAEAVRRHPSRLAALGEEAEKALKALKAFLMERFYRHPEVLRERRKAEAVLEGLFAAYTRYPELLPREVQAKIPEEGLERAVCDYIAGMTDRFALEAYRRLSP” here?
Answer: soluble

Question: For “MIGKEEIHRIRELIGAKEGPVLSLYVDVNPAKPENAGRAYALRAKDAIKALEVPGDLSERVLEVLQNQVLEARTAVFFAGEDLFEVLPLQVELPLVNSVKTAFLDEKAGRYLVDGVLAHWGEPFLLPLVYALDEYERYGIVYVDRERWRVFEVFLGEIEEVHDAFLALDTEAWRRLSLDAPGRRFNLGGIARGGAGQDLFAKRLEAWEERFYKALAHELERLSEARGFTRLVLMGPEEHTKLFLGHLPKRLRERVVAELPSLPHPGASPGEVLKRLEPVLEEVERREEVKLLERLEEAYPKAAFGPEVLARVQEGRVEVWVLPWHLEQEVYLCQDFAFADEAQALAYCESPEKKPLAAVLASLAVGYATKLEFVRGEAENRLLERGGMAALLRW”, which “soluble on expression in E. coli” value is on record?
Answer: soluble

Question: For “MTGNAKLIDRVSAINWNRLQDEKDAEVWDRLTGNFWLPEKVPVSNDIPSWGTLTAGEKQLTMRVFTGLTMLDTIQGTVGAVSLIPDALTPHEEAVLTNIAFMESVHAKSYSQIFSTLCSTAEIDDAFRWSEENRNLQRKAEIVLQSYRGDEPLKRKVASTLLESFLFYSGFYLPMYWSSRAKLTNTADMIRLIIRDEAVHGYYIGYKFQRGLALVDDVTRAELKDYTYELLFELYDNEVEYTQDLYDEVGLTEDVKKFLRYNANKALMNLGYEALFPRDETDVNPAILSALSPNAD”, which “soluble on expression in E. coli” value is on record?
Answer: soluble

Question: Which “soluble on expression in E. coli” value does the source give for “MGTSGCTVDTSRRDKVRMALPHAELEQARMDNLTRHVAQNFLREPQVVGEPNDSGVAVSQLLFEKSDTVVISDREIHHQLRAASIAVVAHAPMLLMDDTDRDAVQAEIGRLGARYILAIGDVGLPKTTGNVKVIPDSGSLTALGKLTSLQFRTQRIDVSNALSAVSRLDGTHPMWLLTNRQEKVQSSPSDGEVSAFPVQSRRDAGAAPQVIATQESGIAAVATARSYGASVTVMRFPDPRLNVESMRAVAGLSDQPLIALGSQFGTSQQLSERIELGERAPLALPHKTGLVFALRTLRARYLNDSDVSEHVDIPYGANYVRTIAHPLSSQDQQDWKAWADAINAQDGFVFIEIDAVHRDADEILDSVEEIVSQPSIGVILRNAAQVCARSPQSRQRIADRLMHWNSEVINHNGDQLGVVLEGVDILRGGVCGISPQELMGLGLAILPARGEHLGGDATVNSQLYWDDWFVAERESFQPTGTLRSPRLGLIIRD” here?
Answer: not soluble

Question: Which “soluble on expression in E. coli” value does the source give for “IGDFEYYIDGMLTFNTNKITEMDELTPDYAYQARTGNRIDQSQLLIWKQWASNPDLIPESYEDAVANPQKYPWNAAGKYKLGNAVFQDTNGDRKIDSYDKVPTGYTNIPELIPTIRLGFSWKGFDARAVLTAYLNRTVPCRENMDYGFGWGGTSTHEITNTWGYYTDDPTDPRNINAKYPRLSTSFSDLDRNYPYNESTIWVVNGDFLSLRNVEVGYSLPARLISKVNMTKCRLYFSGYNLCNWSHLPKGFDPENPTNYIWAYPKTRSFTFGVNIGF” here?
Answer: not soluble

Question: For “VLHAIEPLNLGPKPIFVHEQGLLVEWIDGITLTKDGIELEELLPIAATIHQYHSSSIPVVPFSYISRIDHYWLELEGKYVGSEFETLYKQWRSEPSVEQIPLALCHFDLGCYNLVRGDQGVKVIDWEYASLADPRLDL”, which “soluble on expression in E. coli” value is on record?
Answer: not soluble

Question: For “MSLNINYPAEYEIGDKVFTCIGAALFGQISAASNCWSNHVGIIIGHNGEDFLVAESRVPLSTITTLSRFIKRSSNQRYAIKRLDAGLTEQQKQRIVEQVPSRLRKLYHTGFKYESSRQFCSKFVFDIYKEALCIPVGEIETFGELLNSNPNAKLTFWKFWFLGSIPWERKTVTPASLWHHPGLVLIHAEGVETPQPELTEAVEGHHHHHH”, which “soluble on expression in E. coli” value is on record?
Answer: not soluble

Question: With “MSLAKSVFYYHRCQFDVKDKYGDLKQRITELYHQHKGRYGYRRVTAALKQLDCHHNHKLIAKLMHDMKLSAKIRRQKYRSYKGQQGKIAKNYLKRQFHADKPNKRWLTDITEFKVGDDKLYLSPILDCYNNEIVSYTLSKRPTYDLVGKMLEDALAKTKACRDNKLMLHSDQGWHYQMRLFGQVLKQHGIKQSMSRKGNCLDNALMEGFFGTLKCETIYIEKPNSIEGLEKQIHEYIHYYNHERIQLKLKGLSPVKYRTQSLIEGHHHHHH” as the sequence, how does the “soluble on expression in E. coli” value read?
Answer: not soluble

Question: With “MSLTNEFEILKPGKLLLASANLLDPNFKRTVLLMCEHNEEGSIGFILNKPMEFKVCEAISGFDEIDEPLHMGGPVQVDTVHVLHTRGDVIDGAVEVIPGLFWGGDKEQLSYLINTGVIKASEVRFFLGYAGWSAGQLEAEFEEGSWYTADASSEQVFTDEYERMWSRSVRSKGGEYCYVANSPELPGMNEGHHHHHH” as the sequence, how does the “soluble on expression in E. coli” value read?
Answer: soluble

Question: For “MSETATWQPSASIPNLLKRAAIMAEIRRFFADRGVLEVETPCMSQATVTDIHLFPFETRFVGPGHSQGINLYLMTSPEYHMKRLLAAGCGPVFQLCRSFRNEEMGRHHNPEFTMLEWYRPHYDMYRLMNEVDDLLQQVLDCQPAESLSYQQAFQRHLEIDPLSADKTQLREAAAKLDLSNIADTEEDRDTLLQLLFTMGVEPHIGKEKPTFIYHFPASQASLAQISTEDHRVAERFEVYYKGIELANGFHELTDAREQQQRFEQDNRKRAARGLPQQPIDQNLLDALAAGLPDCSGVALGVDRLVMLALGAESLADVIAFTVDRA”, which “soluble on expression in E. coli” value is on record?
Answer: not soluble
